{"source": "paper PMC3855764", "about": "“Oct4/Sox2 Binding Sites Contribute to Maintaining Hypomethylation of the Maternal Igf2/H19 Imprinting Control Region”", "binders": {"B1": {"name": "ICR Sox-OctA (dsDNA)", "DNA 1": "CTGGTGATTTGCGCTTTCGTATTCTAATTGGGGAC", "DNA 2": "GTCCCCAATTAGAATACGAAAGCGCAAATCACCAG"}, "B2": {"name": "ICR Sox-OctB (dsDNA)", "DNA 1": "TTGGGGCGTTCAGATGCTAATGATCTCCGGCT", "DNA 2": "AGCCGGAGATCATTAGCATCTGAACGCCCCAA"}, "B3": {"name": "A* (methylated Sox-OctA) (dsDNA)", "DNA 1": "B1 DNA 1", "DNA 2": "B1 DNA 2", "modifications": "CpG methylated at all CpGs"}, "B4": {"name": "B* (methylated Sox-OctB) (dsDNA)", "DNA 1": "B2 DNA 1", "DNA 2": "B2 DNA 2", "modifications": "CpG methylated at all CpGs"}, "B5": {"name": "mouse ICR Sox-OctA+B (both motifs) (dsDNA)", "DNA 1": "TTTCGTATTCTAATTGGGGCGTTCAGATGCTAATGATCTC", "DNA 2": "GAGATCATTAGCATCTGAACGCCCCAATTAGAATACGAAA"}, "B6": {"name": "human ICR A2 OctA/Sox-OctB, upstream Sox site mutant (dsDNA)", "DNA 1": "CGCGGAGATGCTAATTTAGGAGCTTGAGATGCTAAAGAGCTG", "DNA 2": "CAGCTCTTTAGCATCTCAAGCTCCTAAATTAGCATCTCCGCG"}}, "key": {"[1]": {"molecular_target": "T1, Oct4 (recombinant);Sox2 (recombinant) (mouse?;mouse?, UniProt P20263;P48432 1-352;1-319, |)", "T1 sequence (P20263 whole entry, chain 1 of 2)": "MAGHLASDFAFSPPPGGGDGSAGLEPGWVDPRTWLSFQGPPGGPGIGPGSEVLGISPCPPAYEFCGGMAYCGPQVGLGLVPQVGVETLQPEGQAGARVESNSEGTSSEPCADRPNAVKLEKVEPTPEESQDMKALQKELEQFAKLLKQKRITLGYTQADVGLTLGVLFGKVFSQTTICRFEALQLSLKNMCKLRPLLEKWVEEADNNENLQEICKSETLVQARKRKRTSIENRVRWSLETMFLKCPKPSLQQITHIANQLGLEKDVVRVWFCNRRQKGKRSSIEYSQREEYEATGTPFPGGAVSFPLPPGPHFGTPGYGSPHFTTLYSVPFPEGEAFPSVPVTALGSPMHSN", "T1 sequence (P48432 whole entry, chain 2 of 2)": "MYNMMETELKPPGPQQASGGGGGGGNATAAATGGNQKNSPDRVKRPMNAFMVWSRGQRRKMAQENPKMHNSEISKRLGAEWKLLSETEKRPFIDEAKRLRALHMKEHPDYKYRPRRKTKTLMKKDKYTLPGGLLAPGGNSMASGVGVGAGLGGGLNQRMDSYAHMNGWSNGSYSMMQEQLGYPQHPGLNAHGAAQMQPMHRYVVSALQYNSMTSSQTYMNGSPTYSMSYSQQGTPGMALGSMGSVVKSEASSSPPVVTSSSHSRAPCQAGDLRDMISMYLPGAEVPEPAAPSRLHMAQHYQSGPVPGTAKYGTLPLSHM", "assay": "EMSA; cooperative ternary complex; versus independent binding; 10 mM Tris pH 8.0, 2 mM MgCl (so in the source), 100 mM KCl, 1.25 mM DTT, 5% glycerol, 0.0625% BSA, 19 ug/ml dGdC, 25 fmol probe in 16 ul, 10 min room temperature; 4% PAGE 0.25X TBE", "details": "protein: recombinant;recombinant; tags: ;; copies: 1;1"}, "[2]": {"molecular_target": "T1, Oct4 (recombinant);Sox2 (recombinant)", "assay": "EMSA; cooperative ternary complex; printed as at least 50 fold; 10 mM Tris pH 8.0, 2 mM MgCl (so in the source), 100 mM KCl, 1.25 mM DTT, 5% glycerol, 0.0625% BSA, 19 ug/ml dGdC, 25 fmol probe in 16 ul, 10 min room temperature; 4% PAGE 0.25X TBE", "details": "protein: recombinant;recombinant; tags: ;; copies: 1;1"}, "[3]": {"molecular_target": "T1, Oct4 (recombinant);Sox2 (recombinant)", "assay": "EMSA; all CpGs methylated; complex not inhibited; 10 mM Tris pH 8.0, 2 mM MgCl (so in the source), 100 mM KCl, 1.25 mM DTT, 5% glycerol, 0.0625% BSA, 19 ug/ml dGdC, 25 fmol probe in 16 ul, 10 min room temperature; 4% PAGE 0.25X TBE", "details": "protein: recombinant;recombinant; tags: ;; copies: 1;1"}, "[4]": {"molecular_target": "T1, Oct4 (recombinant);Sox2 (recombinant)", "assay": "EMSA; several complexes, minor one likely full occupancy; 10 mM Tris pH 8.0, 2 mM MgCl (so in the source), 100 mM KCl, 1.25 mM DTT, 5% glycerol, 0.0625% BSA, 19 ug/ml dGdC, 25 fmol probe in 16 ul, 10 min room temperature; 4% PAGE 0.25X TBE", "details": "protein: recombinant;recombinant; tags: ;; copies: 1;1"}, "[5]": {"molecular_target": "T1, Oct4 (recombinant);Sox2 (recombinant)", "assay": "EMSA; Oct4-Sox2-Oct4 complex (two Oct4, one Sox2); 10 mM Tris pH 8.0, 2 mM MgCl (so in the source), 100 mM KCl, 1.25 mM DTT, 5% glycerol, 0.0625% BSA, 19 ug/ml dGdC, 25 fmol probe in 16 ul, 10 min room temperature; 4% PAGE 0.25X TBE", "details": "protein: recombinant;recombinant; tags: ;; chain copies: 2;1"}}}
{"binder": "B1", "values": [{"measurement": "binding result", "setting": "[1]", "value": "binds"}]}
{"binder": "B2", "values": [{"measurement": "binding signal", "setting": "[2]", "value": "> 50 fold ternary complex over that expected from independent binding"}]}
{"binder": "B3", "values": [{"measurement": "binding result", "setting": "[3]", "value": "binds"}]}
{"binder": "B4", "values": [{"measurement": "binding result", "setting": "[3]", "value": "binds"}]}
{"binder": "B5", "values": [{"measurement": "binding result", "setting": "[4]", "value": "binds"}]}
{"binder": "B6", "values": [{"measurement": "binding result", "setting": "[5]", "value": "binds"}]}
